# Test results: the nanobody polyreactivity screen of Harvey et al. (2022)
# Experiment: yeast display, Sf9 membrane polyspecificity reagent, FACS + sequencing; frameworks hold sequencing errors
# Procedure, shortened: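 Nanobodies from a synthetic yeast display library (Saccharomyces cerevisiae BJ5465), induced 36–48 hours with galactose, were stained 1 hour at 4 °C with 10% biotinylated, detergent-solubilized Sf9 membrane reagent, enriched on streptavidin microbeads, then FACS-sorted. Anti-HA (expression) and streptavidin (reagent binding) fluorescence set low and high (top ~1%) gates. Polyreactivity labels come from the gate of origin. Genes were colony-PCR amplified, MiSeq 2 × 250 sequenced and filtered by CDR length.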
row,Sequence,polyreactivity (PSR sort gate)
1,QVQLVESGGGLVQAGGSLRLSSAASGSIFYSYAMGWYRQAPGKERELVARMSSGGSTYYADSVKGRFTISRDNAKNSVYLQMNSLKPEDTAVYYCAAEALYYPYETYDYWGQGTQETVSS,high polyreactivity
2,QVQLVESGGGLVQAGGSLRLSCAASGGIFGYYVMGWYRQAPGKERELVAAITSGGGTNYADSVKGRFTISRDNAKNTVYLQMNSLKPEDTAVYYCAAVYVRHRFGRFGYWGQGTQVTVSS,low polyreactivity
3,QVQLVETGGGLVQAGGSLRLSCAASGRIFYYYAMGWYRQAPGKERELVAAITRGGGTYYADSVKGRFTISRDNAKNTVYLQMYSLKPEDTAVYYCAKRGPPESHHPYRYRFDYWGQGPQVTVSS,low polyreactivity
4,QVQLVESVRGLFQAGGSLRLSCAASGFTFYIYDMGWYRQAPGTERELVAAITWSGGRTYYADSVKGRFTISRDNAKNTVYFQMNSLKPEDTAVYYCAASYPGLSFHKYEYWGQGTQLTVSS,high polyreactivity
5,QVQLVESGGGLVQAGGSLRLSCAASGRTFRNNAMGWYRQAPGKERELVASISKSGGRTYYADSVKGRFTISRDNAKNTVYLQMNSLKPEDTAVYYCAAYRIHVYPAGLSWQYYYELDYWGQGTQVTVSS,high polyreactivity
6,QVQLEESGGGLVQAGGSLRLSCAASGRTLSHYAKGWYRKAPGKERELVAAITRSGGSTYYADSVKGRFTISRDNAKNTVYLQMNRLKPEDTAVYYWNKTLYTSYDFWGQGTQVTVSS,low polyreactivity
7,QVQLVESGGGLVQAGGSLRLSCAASGGIFESYAMGWYRQAPGKERELVASISSGGSTYYADSVKGRFTISRDNAKNTVYLQMNSLKPEDTAVYYCEYYYWGQGTQVTVSS,low polyreactivity
8,QVQLVESGGGLVQAGGSLRLSCAASGRIFNSYAMGWYRQAPGKERELVAAISRNGGITYYADSVKGRFTISRDNAKNTVYLQMNSLKAEATAVYYCNADSSRRRYSSDYWGQGTQVTVSS,high polyreactivity
9,QVLLVESGGGLVQAGGSLRLSCAASGSTFVVNTMRWYRLAPGKERELVAAISTGSSTYADSVKGRFTISRDNAKKTVYLQMNSLKPEDTAVYYCNTAFPGKYDYWGQGTQVTVSS,low polyreactivity
10,QVQLVESGGGLVQAGGRLRLSCAASGRTFRKYTMGWYRQAPGKEREFDAAITYSGGSTYYADSVKGRFTISRDNAKNTVYLQMNSLKPEDTAVYYCVTRGGYYLYYSYYYWGQGTQVTVSS,high polyreactivity
11,QVQLVESGGGLVQAGGSLRLSCAASGSTFTYYAMGWYRQAPGKERELFAAITFRGDSTYYADSVKGRFTISRDNAKNTVYLQMNILKPEDTAVYYCNADSISSTYYDEDYWGQGTQVTVSS,low polyreactivity
12,QVQLVESGGGLVQAGGSLRLSCAASGSLFGSYAMGWYRQAPGKEREIVASISNSGGSTYYADSVKGRFTISRDNAKNTVYLQMNSLKPEDTAVYYCAAAVYSYTYRYYYWGQGTQVTVSS,high polyreactivity
13,EVQLVESGGGLVQAGGSLRLSCAASGRTFNRYTMGWYRQAPGKERELVAAISRGAGTNYADSVKGRFTISRDNAKNTVYVQMNSLKPEDTAVYYCNARPYGWYASHEYGYWGQGTQVTVSS,high polyreactivity
14,QVQLVESGGGLDQAGGSLRLSCAASGIIFVSNAMGWYRQAPGKERELVATITWTGGSTYYADSVKGRFTISRDNAKNTVYLQMNSLKPEDTAVYYCAADLSIRYDHEYGYWGQGTQVTVSS,low polyreactivity
15,QVQLVESGGGLVQAGGSLRLSCAASGSTFRYYAMGWYRQARGKERELVAAITSSGGRTYYADSVKGRFTISRDNAKNTVYLQMNSLKPEDTAVYYCAAYAYYHTGDDYWGQGTQVTVSS,high polyreactivity
16,HDHLVESGAGLVQAGGSLRLSCAASGLIFPSNAMGWYRQAPGKERELVAAITNGGRTYYADSVKGRFTISRDNATNTVYLQMNSMKPEDTSVYYCNAGYTYRGYWSYGYWGQGTQVTVSS,high polyreactivity
17,QVQLVESGGGLVQAGGSLRLSCAASGRTFSYYAMGWYRQAPGKERELVASIRKSGASTYYADSVKGRFTISRDNAKNTVYLQMNSLKPEDTAVYYCAARGSRKPDWGLGYWGQGTQVTVSS,high polyreactivity
18,QVQLVESGGGLVQAGGSLRLSCAASGRTFYIYAMGWYRQAPGKERELVAAISWGSGSTYYADSVKGRFTISRDNAKNTVYLQMNSLKPEDTAVYYCAAEYAYPSEWTYDYWRQGTQVTVSS,low polyreactivity
19,QVQLVESGGGLVQAGGSLRLSCAASGNTFVDYAMVWYRQAPGKERELVAAIDQTGGSTYYADSVKGRFTISRDNAKNTVYLQMNSLKPEDTAVYYCARDLAYRKDLYPRWYDYWGQGTQVTVSS,low polyreactivity
20,QVQLVESGGCLVQAGGSLRLSCAASGFIFNKYAMGWSRQATGKERELVAAISFRGGRTYYADSVKGRFTISRDNAKNTVYFQMNSLKPEDTAVYYCAAETRDYSEGYYWGQGTQVTVSS,high polyreactivity
21,QVQLVESGGGLVQAGGSLRLSCAASGSIFRRNAMGWYRQAPGKERELVATITSDGSTDYADSVKGRFTISRDNAKNTVYFQMNSLKPEDTAVYYCAVAYLWRPYDFREFDYWGQGTQVTVSS,low polyreactivity
22,QVQLVESGGGLVQAGGSLRLSCAASGSTFTPYGMGWYRQAPGKERELVAAITVSGGRTYYADSVKGRFTISRDNAKNTVYLQMNSLKPEDTAVYYCAAVYLRGDGEYDSWGQGTQVTVSS,low polyreactivity
23,QVQLVESGGGLVQAGGSLRLSCAASGFIFAEYAMGWYRQAPGKERELVVAIDVGGGSTYYADSVKGRFTISGDNAKNTVYLQMNSLKPEDTAVYYCAATQYGYWVPYQGFDYWGQGTQVTVSS,low polyreactivity
24,QVQLVESGGALVQEGGSLRLSCAASGITFAGNAMGWYRQAPGKERELVATITSDGNTNYAVSVKGRFTISRDNAKNTVYLQMNSLKPEDTAVYYCNAEGENRRDRYDYWGQGTQVTVSS,low polyreactivity
25,QVQLVESGGRLVQAGGSLRLISAASGFTFRAYAMGWYRQAPGKERELVAAINISGGSTYYADSVKGRFTISRDNAKKTVYLKMNSLKPEDTAVYYCAADWPEDWYTEYGYWGQGTQVTVSS,low polyreactivity
26,QVQLVESGGGLVQAGGSLRLSCAASGYIFARYAMGWYRQAPGTERELVARITTGDSTYYADSVKGRFTISRDNAKNTVYLQMNSLKPEDTAVYYCAADDNVSVVGLYYWGQGTQVTVSS,low polyreactivity
27,QVQLVESGGGLVQAGGSLRLSCAASGRTFRYYDMGWYRQAPGKERELVAAITSRGGSTYYADSVKGRFTISRDNAKNTVYLQMNSLIPEDTAVYDCNAYPVQIFYLGNRQYNYWGHGTQVTVSS,high polyreactivity
28,QVQLVESGGGLDQAGGSLRLSCAASGSIFAGYAMGWYRQAHGKERELVAAINWTGDSTYYADSVKGRFTISRDNAKNTVYLQMNRLKPEDTAVYYCAAIRRQKGLWDYYYWGQGTQVTVSS,low polyreactivity
29,QVQLVESGGGLVQAGGSLRLSCAASGRIFGFNMGWYRQAPGKERELVAAINSGGGTYYADSVKGLFTISRDNAKNTVYLQMNSLKPEYTAVYYCNARFRFRLGQYRYDYWGQGTQVTVSS,high polyreactivity
30,QVQLVESGGGLVQAGGSLRLSCAASGSIFDHTKAMGRYRQSPGKERELVAGITRGGSTNYADSVKGRFTISRDNAKNTFYLQMNSLKPEDTAVYYCAKAMPAKFYSEAGYDYWGQGTQVTVSS,low polyreactivity
